From PMC3433420
“And” between values parts separate entries of the source, which are not always exact repeats. Equal values may be shown once. Each block holds one substance with its values, some of them ahead of it.

What was measured:
[1] = target: PIK3R1 N-terminal SH2 domain (human); assay: SPR; Biacore 3000; 6X His SH2 proteins held on a Ni-NTA chip, dye-free peptides in solution, equilibrium
[2] = target: PLCG1 C-terminal SH2 domain (human); assay: as above
[3] = target: TNS3 SH2 domain (human) (UniProt Q68CZ2); assay: as above
Chain of TNS3 SH2 domain (human) (Q68CZ2 1172-1282): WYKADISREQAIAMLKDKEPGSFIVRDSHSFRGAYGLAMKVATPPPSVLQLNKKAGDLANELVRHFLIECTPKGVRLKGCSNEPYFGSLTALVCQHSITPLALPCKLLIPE

[4] = target: GRAP2 SH2 domain (human) (UniProt O75791); assay: peptide or protein array; SH2/PTB proteins spotted on aldehyde slides, rhodamine peptide titrated in buffer B (20 mM HEPES, 100 mM KCl, 0.1% Tween-20, 5 mM DTT, pH 7.8), 1 h at room temperature; replicate assays
Chain of GRAP2 SH2 domain (human) (O75791 58-149): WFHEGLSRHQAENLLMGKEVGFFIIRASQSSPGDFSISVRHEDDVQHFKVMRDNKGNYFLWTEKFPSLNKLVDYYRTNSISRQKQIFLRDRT

[5] = target: GRB7 SH2 domain (human) (UniProt Q14451); assay: as above
Chain of GRB7 SH2 domain (human) (Q14451 431-527): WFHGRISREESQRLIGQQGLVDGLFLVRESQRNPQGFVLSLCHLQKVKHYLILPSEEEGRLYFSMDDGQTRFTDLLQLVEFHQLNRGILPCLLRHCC

[6] = target: ITK SH2 domain (human) (UniProt Q08881); assay: as above
Chain of ITK SH2 domain (human) (Q08881 239-338): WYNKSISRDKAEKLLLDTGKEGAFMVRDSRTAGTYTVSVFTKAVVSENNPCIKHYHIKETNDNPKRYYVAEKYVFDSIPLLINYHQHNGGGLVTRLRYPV

[7] = target: LCK SH2 domain (human) (UniProt P06239); assay: as above
Chain of LCK SH2 domain (human) (P06239 127-224): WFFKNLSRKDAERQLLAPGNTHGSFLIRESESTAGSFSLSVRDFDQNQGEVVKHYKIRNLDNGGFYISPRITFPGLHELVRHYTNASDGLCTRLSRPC

[8] = target: PLCG1 tandem SH2 domains (human); assay: as above
[9] = target: SH2D3A SH2 domain (human) (UniProt Q9BRG2); assay: as above
Chain of SH2D3A SH2 domain (human) (Q9BRG2 15-114): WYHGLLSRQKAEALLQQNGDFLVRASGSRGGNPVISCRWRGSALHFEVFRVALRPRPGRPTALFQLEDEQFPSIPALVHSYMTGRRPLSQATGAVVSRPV

[10] = target: SRC SH2 domain (human) (UniProt P12931); assay: as above
[11] = target: SYK N-terminal SH2 domain (human); assay: as above
[12] = target: TEC SH2 domain (human) (UniProt P42680); assay: as above
Chain of TEC SH2 domain (human) (P42680 247-345): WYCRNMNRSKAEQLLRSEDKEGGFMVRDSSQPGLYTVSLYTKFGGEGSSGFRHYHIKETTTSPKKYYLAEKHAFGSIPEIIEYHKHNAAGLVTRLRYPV

[13] = target: TNS3 SH2 domain (human) (UniProt Q68CZ2); assay: as above
[14] = target: BLK SH2 domain (human) (UniProt P51451); assay: as above
Chain of BLK SH2 domain (human) (P51451 124-220): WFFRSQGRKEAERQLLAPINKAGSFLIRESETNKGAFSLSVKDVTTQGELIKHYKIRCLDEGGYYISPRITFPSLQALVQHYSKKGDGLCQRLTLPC

[15] = target: FES SH2 domain (human) (UniProt P07332); assay: as above
Chain of FES SH2 domain (human) (P07332 460-549): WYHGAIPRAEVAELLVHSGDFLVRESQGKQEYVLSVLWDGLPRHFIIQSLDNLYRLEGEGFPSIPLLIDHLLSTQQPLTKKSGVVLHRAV

[16] = target: PIK3R3 tandem SH2 domains (human); assay: as above
[17] = target: PLCG2 tandem SH2 domains (human); assay: as above
[18] = target: RASA1 N-terminal SH2 domain (human) (UniProt P20936); assay: as above
Chain of RASA1 N-terminal SH2 domain (human) (P20936 whole entry, the tested form may be a part): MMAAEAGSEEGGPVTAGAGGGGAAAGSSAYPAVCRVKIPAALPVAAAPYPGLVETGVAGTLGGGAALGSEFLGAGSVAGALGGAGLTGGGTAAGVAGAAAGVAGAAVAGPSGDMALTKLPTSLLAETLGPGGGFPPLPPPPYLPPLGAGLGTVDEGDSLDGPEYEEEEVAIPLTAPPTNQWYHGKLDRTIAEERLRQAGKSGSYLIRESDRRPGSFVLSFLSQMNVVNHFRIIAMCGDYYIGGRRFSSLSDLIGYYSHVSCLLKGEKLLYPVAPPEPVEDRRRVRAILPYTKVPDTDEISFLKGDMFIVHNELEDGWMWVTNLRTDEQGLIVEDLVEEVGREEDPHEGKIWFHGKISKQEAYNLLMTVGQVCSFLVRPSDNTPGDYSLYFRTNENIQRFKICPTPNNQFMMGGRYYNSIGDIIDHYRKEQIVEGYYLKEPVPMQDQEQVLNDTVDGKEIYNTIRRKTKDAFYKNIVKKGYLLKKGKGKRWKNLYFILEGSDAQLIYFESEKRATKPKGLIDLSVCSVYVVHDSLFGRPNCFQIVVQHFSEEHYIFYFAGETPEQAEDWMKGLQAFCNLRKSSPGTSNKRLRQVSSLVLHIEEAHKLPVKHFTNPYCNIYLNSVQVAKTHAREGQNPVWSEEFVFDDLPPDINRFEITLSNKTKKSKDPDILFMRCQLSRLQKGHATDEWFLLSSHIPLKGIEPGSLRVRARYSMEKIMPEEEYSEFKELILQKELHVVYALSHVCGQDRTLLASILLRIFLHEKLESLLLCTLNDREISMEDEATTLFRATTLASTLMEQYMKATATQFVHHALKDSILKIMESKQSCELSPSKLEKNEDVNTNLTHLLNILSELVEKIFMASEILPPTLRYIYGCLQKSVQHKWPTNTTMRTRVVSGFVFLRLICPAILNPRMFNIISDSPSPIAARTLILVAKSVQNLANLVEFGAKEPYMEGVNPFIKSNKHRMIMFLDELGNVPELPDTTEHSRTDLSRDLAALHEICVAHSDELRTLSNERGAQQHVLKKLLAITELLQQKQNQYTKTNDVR

[19] = target: SH3BP2 SH2 domain (human) (UniProt P78314); assay: as above
Chain of SH3BP2 SH2 domain (human) (P78314 457-555): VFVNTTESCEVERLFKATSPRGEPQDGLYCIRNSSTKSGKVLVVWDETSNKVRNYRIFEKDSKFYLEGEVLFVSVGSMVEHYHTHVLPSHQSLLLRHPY

[20] = target: SYK tandem SH2 domains (human); assay: as above
[21] = target: TNS1 SH2 domain (human) (UniProt Q9HBL0); assay: as above
Chain of TNS1 SH2 domain (human) (Q9HBL0 1567-1676): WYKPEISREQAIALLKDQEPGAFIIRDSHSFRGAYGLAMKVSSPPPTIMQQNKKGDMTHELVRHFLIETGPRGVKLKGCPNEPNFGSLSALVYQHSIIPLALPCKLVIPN

[22] = target: YES1 SH2 domain (human) (UniProt P07947); assay: as above
Chain of YES1 SH2 domain (human) (P07947 158-255): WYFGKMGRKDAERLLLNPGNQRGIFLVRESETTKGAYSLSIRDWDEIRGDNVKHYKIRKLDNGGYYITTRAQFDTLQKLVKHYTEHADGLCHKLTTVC

[23] = target: PIK3R3 C-terminal SH2 domain (human); assay: SPR; Biacore 3000; 6X His SH2 proteins held on a Ni-NTA chip, dye-free peptides in solution, equilibrium
[24] = target: SHC3 SH2 domain (human) (UniProt Q92529); assay: as above
Chain of SHC3 SH2 domain (human) (Q92529 499-590): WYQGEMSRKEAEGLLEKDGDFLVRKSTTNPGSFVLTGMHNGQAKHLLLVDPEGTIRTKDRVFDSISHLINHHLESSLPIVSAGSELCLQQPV

[25] = target: ErbB1 pY900 phosphopeptide, rhodamine-labelled (human); assay: fluorescence polarisation; saturation binding in solution: rhodamine peptide fixed at 10 nM, protein titrated 0.002-10 uM, 20 min at room temperature; assay buffer 20 mM HEPES, 100 mM KCl, 0.1% Tween-20, 5 mM DTT, pH 7.8; apparent KD
[26] = target: ErbB2 pY685 phosphopeptide, rhodamine-labelled (human); assay: as above
[27] = target: ErbB4 pY906 phosphopeptide, rhodamine-labelled (human); assay: as above
[28] = target: KIT pY936 phosphopeptide, rhodamine-labelled; assay: as above
[29] = target: MET pY1313 phosphopeptide, rhodamine-labelled; assay: as above
[30] = target: ErbB1 pY801 phosphopeptide, rhodamine-labelled (human); assay: as above
[31] = target: ErbB1 pY978 phosphopeptide, rhodamine-labelled (human); assay: as above
[32] = target: ErbB4 pY833 phosphopeptide, rhodamine-labelled (human); assay: as above

Substance: ErbB1 pY801 phosphopeptide, dye-free
Kd [1]: 2800 nM | Kd [2]: 2330 nM | Kd [3]: 916 nM

Substance: ErbB3 pY1132 phosphopeptide, rhodamine-labelled, for protein microarrays
Kd [14]: 199 nM | Kd [15]: 3200 nM | Kd [5]: 10 nM | Kd [16]: 7.73 nM | Kd [17]: 1190 nM | Kd [18]: 5150 nM | Kd [19]: 6400 nM | Kd [11]: 2400 nM | Kd [20]: 785 nM and 4980 nM | Kd [21]: 1.44 nM | Kd [22]: 735 nM and 2260 nM

Substance: ErbB4 pY906 phosphopeptide, dye-free
Kd [23]: 566 nM | Kd [24]: 6710 nM

Substance: PLCG1 C-terminal SH2 domain (domain or fragment)
Kd [30]: 9440 nM | Kd [25]: 15500 nM | Kd [31]: 1370 nM | Kd [32]: 4730 nM | Kd [29]: 2280 nM

Further lines, results first:

Kd [4]: 1310 nM | Kd [5]: 1190 nM | Kd [6]: 1160 nM | Kd [7]: 550 nM and 1140 nM and 1120 nM | Kd [8]: 380 nM | Kd [9]: 170 nM and 401 nM and 402 nM | Kd [10]: 1850 nM and 424 nM | Kd [11]: 609 nM and 1330 nM | Kd [12]: 1660 nM | Kd [13]: 802 nM
Substance: ErbB3 pY789 phosphopeptide, rhodamine-labelled, for protein microarrays

Kd [25]: 5830 nM | Kd [26]: 4430 nM | Kd [27]: 1840 nM | Kd [28]: 8380 nM | Kd [29]: 255 nM
Substance: PIK3R3 C-terminal SH2 domain (domain or fragment)
